Measurements taken from article PMC13397619.

B1: NLV2 TCR alpha chain (CDR3α only) (parent)
chain: AGPMKTSYDKVI

Variants of: B1
Assay: T-Switch: Jurkat TCRβ−/− cells expressing a CDR3 saturation-mutagenesis library, stained with two peptide-HLA-A*02:01 tetramers (original and novel peptide) plus anti-CD3, FACS-sorted into four gates, gDNA sequenced
Conditions: tetramers 1 µg/mL, 30 min on ice, SP, DP and SW gates expanded about 10 days between rounds ('two to three rounds of selection' in the Methods), unresolved parent, parent is a CDR3 fragment, scale: fold enrichment, numbering: sequential-on-construct, sequence starts at 1
[1] = with both tetramers (double-negative gate, binds neither): HLA-A*02:01 with … and with …, gate DN: OPPOSITE: higher = more of the variant in the gate that binds neither peptide = LESS binding (or no expression; inferred). Fold enrichment of the CDR3 variant in one FACS gate of a two-tetram
[2] = with both tetramers (double-positive gate): HLA-A*02:01 with … and with …, gate DP: higher = more of the variant in the gate that binds both peptides. Fold enrichment of the CDR3 variant in one FACS gate of a two-tetramer stain. SP/DP/SW gates were expanded and re-sorted bef

Variant	enrichment [1]	enrichment [2]
[…] (CDR3 as printed); D9E derived by comparing it with the table's wild-type CDR3 AGPMKTSYDKVI	1.03	0
[…] (CDR3 as printed); T6K derived by comparing it with the table's wild-type CDR3 AGPMKTSYDKVI	1.04	0
[…] (CDR3 as printed); I12V derived by comparing it with the table's wild-type CDR3 AGPMKTSYDKVI	0.739	0
[…] (CDR3 as printed); K5F derived by comparing it with the table's wild-type CDR3 AGPMKTSYDKVI	0.857	0
[…] (CDR3 as printed); K5N derived by comparing it with the table's wild-type CDR3 AGPMKTSYDKVI	1.12	0
[…] (CDR3 as printed); P3G derived by comparing it with the table's wild-type CDR3 AGPMKTSYDKVI	1	0
[…] (CDR3 as printed); Y8M derived by comparing it with the table's wild-type CDR3 AGPMKTSYDKVI	1.1	0
[…] (CDR3 as printed); A1G derived by comparing it with the table's wild-type CDR3 AGPMKTSYDKVI	0.876	0
[…] (CDR3 as printed); V11R derived by comparing it with the table's wild-type CDR3 AGPMKTSYDKVI	1.26	0
[…] (CDR3 as printed); V11Q derived by comparing it with the table's wild-type CDR3 AGPMKTSYDKVI	1.35	0
[…] (CDR3 as printed); G2V derived by comparing it with the table's wild-type CDR3 AGPMKTSYDKVI	0.88	0
[…] (CDR3 as printed); Y8H derived by comparing it with the table's wild-type CDR3 AGPMKTSYDKVI	0.969	0
[…] (CDR3 as printed); S7C derived by comparing it with the table's wild-type CDR3 AGPMKTSYDKVI	0.877	0
[…] (CDR3 as printed); M4G derived by comparing it with the table's wild-type CDR3 AGPMKTSYDKVI	0.783	0
[…] (CDR3 as printed); V11S derived by comparing it with the table's wild-type CDR3 AGPMKTSYDKVI	1.15	0
[…] (CDR3 as printed); V11T derived by comparing it with the table's wild-type CDR3 AGPMKTSYDKVI	1.12	0
[…] (CDR3 as printed); K5P derived by comparing it with the table's wild-type CDR3 AGPMKTSYDKVI	0.356	0
[…] (CDR3 as printed); I12R derived by comparing it with the table's wild-type CDR3 AGPMKTSYDKVI	1.1	0
[…] (CDR3 as printed); M4T derived by comparing it with the table's wild-type CDR3 AGPMKTSYDKVI	0.518	0

Variant	enrichment [1]	enrichment [2]
[…] (CDR3 as printed); K10A derived by comparing it with the table's wild-type CDR3 AGPMKTSYDKVI	0.862	0
[…] (CDR3 as printed); K5E derived by comparing it with the table's wild-type CDR3 AGPMKTSYDKVI	0.392	0
[…] (CDR3 as printed); Y8K derived by comparing it with the table's wild-type CDR3 AGPMKTSYDKVI	0.928	0
[…] (CDR3 as printed); Y8S derived by comparing it with the table's wild-type CDR3 AGPMKTSYDKVI	0.528	0
[…] (CDR3 as printed); P3M derived by comparing it with the table's wild-type CDR3 AGPMKTSYDKVI	1.17	0
[…] (CDR3 as printed); P3F derived by comparing it with the table's wild-type CDR3 AGPMKTSYDKVI	1.32	0
[…] (CDR3 as printed); T6D derived by comparing it with the table's wild-type CDR3 AGPMKTSYDKVI	1.18	0
[…] (CDR3 as printed); K10R derived by comparing it with the table's wild-type CDR3 AGPMKTSYDKVI	0.909	0
[…] (CDR3 as printed); D9A derived by comparing it with the table's wild-type CDR3 AGPMKTSYDKVI	1.01	0
[…] (CDR3 as printed); A1V derived by comparing it with the table's wild-type CDR3 AGPMKTSYDKVI	0.809	0
[…] (CDR3 as printed); M4P derived by comparing it with the table's wild-type CDR3 AGPMKTSYDKVI	1	0
[…] (CDR3 as printed); K10Q derived by comparing it with the table's wild-type CDR3 AGPMKTSYDKVI	0.706	0
[…] (CDR3 as printed); I12Q derived by comparing it with the table's wild-type CDR3 AGPMKTSYDKVI	1.17	0
[…] (CDR3 as printed); A1R derived by comparing it with the table's wild-type CDR3 AGPMKTSYDKVI	0.924	0
[…] (CDR3 as printed); K5V derived by comparing it with the table's wild-type CDR3 AGPMKTSYDKVI	0.87	0
[…] (CDR3 as printed); A1F derived by comparing it with the table's wild-type CDR3 AGPMKTSYDKVI	0.884	0
[…] (CDR3 as printed); K5S derived by comparing it with the table's wild-type CDR3 AGPMKTSYDKVI	0.492	0
[…] (CDR3 as printed); G2R derived by comparing it with the table's wild-type CDR3 AGPMKTSYDKVI	0.977	0
[…] (CDR3 as printed); M4N derived by comparing it with the table's wild-type CDR3 AGPMKTSYDKVI	0.728	0

Variant	enrichment [1]	enrichment [2]
[…] (CDR3 as printed); I12G derived by comparing it with the table's wild-type CDR3 AGPMKTSYDKVI	1.06	0
[…] (CDR3 as printed); D9W derived by comparing it with the table's wild-type CDR3 AGPMKTSYDKVI	1.34	0
[…] (CDR3 as printed); T6E derived by comparing it with the table's wild-type CDR3 AGPMKTSYDKVI	1.78	0
[…] (CDR3 as printed); K5D derived by comparing it with the table's wild-type CDR3 AGPMKTSYDKVI	0.812	0
[…] (CDR3 as printed); A1S derived by comparing it with the table's wild-type CDR3 AGPMKTSYDKVI	0.736	0
[…] (CDR3 as printed); M4A derived by comparing it with the table's wild-type CDR3 AGPMKTSYDKVI	0.697	0
[…] (CDR3 as printed); S7L derived by comparing it with the table's wild-type CDR3 AGPMKTSYDKVI	1.06	0
[…] (CDR3 as printed); K5T derived by comparing it with the table's wild-type CDR3 AGPMKTSYDKVI	0.493	0.931
[…] (CDR3 as printed); Y8F derived by comparing it with the table's wild-type CDR3 AGPMKTSYDKVI	1.1	0
[…] (CDR3 as printed); A1Y derived by comparing it with the table's wild-type CDR3 AGPMKTSYDKVI	0.935	0
[…] (CDR3 as printed); Y8G derived by comparing it with the table's wild-type CDR3 AGPMKTSYDKVI	1.22	0
[…] (CDR3 as printed); V11Y derived by comparing it with the table's wild-type CDR3 AGPMKTSYDKVI	1.04	0
[…] (CDR3 as printed); V11A derived by comparing it with the table's wild-type CDR3 AGPMKTSYDKVI	1.13	0
[…] (CDR3 as printed); A1D derived by comparing it with the table's wild-type CDR3 AGPMKTSYDKVI	0.746	0
[…] (CDR3 as printed); S7A derived by comparing it with the table's wild-type CDR3 AGPMKTSYDKVI	0.945	0
[…] (CDR3 as printed); M4D derived by comparing it with the table's wild-type CDR3 AGPMKTSYDKVI	0.825	0
[…] (CDR3 as printed); Y8E derived by comparing it with the table's wild-type CDR3 AGPMKTSYDKVI	0.485	3.54
[…] (CDR3 as printed); A1L derived by comparing it with the table's wild-type CDR3 AGPMKTSYDKVI	0.94	0
[…] (CDR3 as printed); D9H derived by comparing it with the table's wild-type CDR3 AGPMKTSYDKVI	1.29	0
